Measurements as given in PMC9687583.

Molecular target: T1, Human C-C motif ligand 16 (CCL16) (human), O15467
T1 chain: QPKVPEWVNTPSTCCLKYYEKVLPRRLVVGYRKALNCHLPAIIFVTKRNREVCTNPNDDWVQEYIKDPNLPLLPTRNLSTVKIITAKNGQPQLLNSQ
Test: SEC; HiLoad 26/60 Superdex 75 pg; 50 mM sodium dihydrogen phosphate, 500 mM sodium chloride, 10% (v/v) glycerol, pH 8.0; apparent mass after calibration with standard proteins in the same buffer
Conditions: remark: other sources report otherwise

B1: Human C-C motif ligand 16 (CCL16), O15467 24-120 (natural protein)
chain: QPKVPEWVNTPSTCCLKYYEKVLPRRLVVGYRKALNCHLPAIIFVTKRNREVCTNPNDDWVQEYIKDPNLPLLPTRNLSTVKIITAKNGQPQLLNSQ
modifications: here or on the partner: two intramolecular disulphide bonds (confirmed by CE-MS and electron density); two intramolecular disulphide bonds (confirmed by CE-MS and electron density)
Binder B1 has a stoichiometry N of 2.
